The values that follow come from US20210380703A1 (RIGEL PHARMACEUTICALS, published 2021).

The target of test [1] is Mouse ACVR2A (mouse, UniProt P27038 20-135, limits assumed). In words: ELISA. The essentials:
(§1)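 mAb binding by ELISA; antigens: hu ACVR2A, mu ACVR2A; pos ctrl biotinylated goat anti-hu kappa LC; neg ctrl hu Fc.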
On the technique in general: In an ELISA, binding on a coated surface is turned into a signal by an enzyme label.

The target of test [2] is T1, Human ACVR2A (human, UniProt P27037 20-135, limits assumed).
T1 construct: also called activin receptor, type II A
In words: ELISA. The method, boiled down:
as §1

Test [3] has as its target T2, Goat anti-Human Kappa.
T2 construct: Positive control of the ELISA; also called biotinylated goat anti-human kappa light chain
In words: ELISA, positive control. The method, boiled down: as §1
Further: test concentration or dose not given here.

Chain of Mouse ACVR2A (P27038 20-135 limits assumed): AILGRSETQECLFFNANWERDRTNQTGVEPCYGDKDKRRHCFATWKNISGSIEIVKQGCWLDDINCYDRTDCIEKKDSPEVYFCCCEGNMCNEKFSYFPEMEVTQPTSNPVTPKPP
T1 sequence (P27037 20-135 limits assumed): as the sequence (P27038 20-135 limits assumed) above, with R20K, I73V counted along it

B1: 370_A03 (antibody, V domains shown)
VH: EVQLLESGGGLVQPGGSLRLSCAASGFTFSSYSMNWVRQAPGKGLEWVSNINYNGGYTSYADSVKGRFTISRDNSKNTLYLQMNSLRAEDTAVYYCARSANWHDTALDYWGQGTLVTVSS
VL: DIQMTQSPSSLSASVGDRVTITCRASQSILSYLNWYQQKPGKAPKLLIYAATSRASGVPSRFSGSGSGTDFTLTISSLQPEDFATYYCQQSYDSPLTFGGGTKVEIK
B1: the optical density was determined as 3.63 OD in test [1], 3.54 OD in test [2] and 3.56 OD in test [3].

B2: 367_E06 (antibody, V domains shown)
VH: EVQLLESGGGLVQPGGSLRLSCAASGFTFDSYSMNWVRQAPGKGLEWVSSINYNSGYKGYADSVKGRFTISRDNSKNTLYLQMNSLRAEDTAVYYCARSANWHDTHLDYWGQGTLVTVSS
VL: not shown
Take B2: the optical density in test [1] is 2.31 OD; in test [2], 2.02 OD; in test [3], 3.48 OD.

B3: 367_E04 (antibody, V domains shown)
VH: EVQLLESGGGLVQPGGSLRLSCAASGFTFSDYSMNWVRQAPGKGLEWVSSINYNGGYKGYADSVKGRFTISRDNSKNTLYLQMNSLRAEDTAVYYCARSANWHDTHLDYWGQGTLVTVSS
VL: DIQMTQSPSSLSASVGDRVTITCRASQSILSYLNWYQQKPGKAPKLLIYAATSRASGVPSRFSGSGSGTDFTLTISSLQPEDFATYYCQQSYESPLTFGGGTKVEIK
For the molecule B3, the optical density worked out at 2.57 OD in test [1], 2.41 OD in test [2] and 3.5 OD in test [3].

B4: 367_E01 (antibody, V domains shown)
VH: EVQLLESGGGLVQPGGSLRLSCAASGFTFSSYGMNWVRQAPGKGLEWVAGINYNGGYKSYADSVKGRFTISRDNSKNTLYLQMNSLRAEDTAVYYCARSANWHDTALDYWGQGTLVTVSS
VL: DIQMTQSPSSLSASVGDRVTITCRASQSILSYVNWYQQKPGKAPKLLIYATTSRASGVPSRFSGSGSGTDFTLTISSLQPEDFATYYCQQSYDLPLTFGGGTKVEIK
In the case of B4, the optical density in test [1] worked out at 2.52 OD; in test [2] it was 2.55 OD; in test [3] it was 3.61 OD.

B5: 367_D10 (antibody, V domains shown)
VH: EVQLLESGGGLVQPGGSLRLSCAASGFTFDSYGMNWVRQAPGKGLEWVSNINYNGGYTSYADSVKGRFTISRDNSKNTLYLQMNSLRAEDTAVYYCARSANWHDTALDYWGQGTLVTVSS
VL: DIQMTQSPSSLSASVGDRVTITCRASQSIISYLNWYQQKPGKAPKLVIYAATSRASGVPSRFSGSGSGTDFTLTISSLQPEDFATYYCQQSYDTPLTFGGGTKVEIK
For the molecule B5, the values for the optical density in test [1], in test [2] and in test [3] were 2.67 OD, 2.7 OD and 3.38 OD, respectively.

B6: 367_E11 (antibody, V domains shown)
VH: EVQLLESGGGLVQPGGSLRLSCAASGFTFDSYGMNWVRQAPGKGLEWVSSINYNSGYKGYADSVKGRFTISRDNSKNTLYLQMNSLRAEDTAVYYCARSANWHDTHLDYWGQGTLVTVSS
VL: DIQMTQSPSSLSASVGDRVTITCRASQSIVSYVNWYQQKPGKAPKLVIYAATSRHSGVPSRFSGSGSGTDFTLTISSLQPEDFATYYCQQSYDTPLTFGGGTKVEIK
As to B6, the optical density in test [1] was 2.91 OD; in test [2] it was 2.4 OD; in test [3], 3.61 OD.

B7: 367_C11 (antibody, V domains shown)
VH: EVQLLESGGGLVQPGGSLRLSCAASGFTFDSYSMNWVRQAPGKGLEWVSSINYNSGYTGYADSVKGRFTISRDNSKNTLYLQMNSLRAEDTAVYYCARSANWHDTHLDYWGQGTLVTVSS
VL: DIQMTQSPSSLSASVGDRVTITCRASQSILSYLNWYQQKPGKAPKLVIYAATSRHSGVPSRFSGSGSGTDFTLTISSLQPEDFATYYCQQSYNTPLTFGGGTKVEIK
Take B7: the optical density was determined as 2.54 OD in test [1], 2.33 OD in test [2] and 3.45 OD in test [3].

B8: 367_F11 (antibody, V domains shown)
VH: EVQLLESGGGLVQPGGSLRLSCAASGFTFSSYSMNWVRQAPGKGLEWVAGINYNSGYTGYADSVKGRFTISRDNSKNTLYLQMNSLRAEDTAVYYCARSANWHDTHLDYWGQGTLVTVSS
VL: not shown
For B8, the optical density amounted to 1.87 OD in test [1], 1.71 OD in test [2] and 3.48 OD in test [3].

B9: 367_C01 (antibody, V domains shown)
VH: EVQLLESGGGLVQPGGSLRLSCAASGFTFDDYSMNWVRQAPGKGLEWVSGINYNGGYKSYADSVKGRFTISRDNSKNTLYLQMNSLRAEDTAVYYCARSANWHDTHLDYWGQGTLVTVSS
VL: DIQMTQSPSSLSASVGDRVTITCRASQSILTYLNWYQQKPGKAPKLVIYATTSLHSGVPSRFSGSGSGTDFTLTISSLQPEDFATYYCQQSYDTPLTFGGGTKVEIK
On to B9, for which the optical density was 2.99 OD in test [1], 2.62 OD in test [2] and 3.71 OD in test [3].

B10: 367_E09 (antibody, V domains shown)
VH: EVQLLESGGGLVQPGGSLRLSCAASGFTFSDYGMNWVRQAPGKGLEWVASINYNSGYKGYADSVKGRFTISRDNSKNTLYLQMNSLRAEDTAVYYCARSANWHDTALDYWGQGTLVTVSS
VL: DIQMTQSPSSLSASVGDRVTITCRASQSILSYLNWYQQKPGKAPKLVIYATTSRASGVPSRFSGSGSGTDFTLTISSLQPEDFATYYCQQSYETPLTFGGGTKVEIK
For the molecule B10, the optical density was determined as 1.81 OD in test [1], 1.66 OD in test [2] and 3.33 OD in test [3].

B11: 367_F07 (antibody, V domains shown)
VH: EVQLLESGGGLVQPGGSLRLSCAASGFTFDSYGMHWVRQAPGKGLEWVANINYNGGYTGYADSVKGRFTISRDNSKNTLYLQMNSLRAEDTAVYYCARSANWHDTALDYWGQGTLVTVSS
VL: DIQMTQSPSSLSASVGDRVTITCRASQSIISYVNWYQQKPGKAPKLLIYAATSRASGVPSRFSGSGSGTDFTLTISSLQPEDFATYYCQQSYETPLTFGGGTKVEIK
As to B11, the results for the optical density in test [1], in test [2] and in test [3] were 2.25 OD, 2.13 OD and 3.26 OD, respectively.

B12: 367_F03 (antibody, V domains shown)
VH: EVQLLESGGGLVQPGGSLRLSCAASGFTFSSYSMNWVRQAPGKGLEWVAGINYNSGYKSYADSVKGRFTISRDNSKNTLYLQMNSLRAEDTAVYYCARSANWHDTALDYWGQGTLVTVSS
VL: DIQMTQSPSSLSASVGDRVTITCRASQSILSYVNWYQQKPGKAPKLVIYAATSLASGVPSRFSGSGSGTDFTLTISSLQPEDFATYYCQQSDDTPLTFGGGTKVEIK
Consider B12, for which the optical density in test [1] worked out at 2.39 OD; in test [2] it was 2.1 OD; in test [3] it was 3.45 OD.

B13: 367_C05 (antibody, V domains shown)
VH: EVQLLESGGGLVQPGGSLRLSCAASGFTFDDYGMNWVRQAPGKGLEWVSSINYNGGYTGYADSVKGRFTISRDNSKNTLYLQMNSLRAEDTAVYYCARSANWHDTHLDYWGQGTLVTVSS
VL: DIQMTQSPSSLSASVGDRVTITCRASQSILSYVNWYQQKPGKAPKLVIYAATSRHSGVPSRFSGSGSGTDFTLTISSLQPEDFATYYCQQSYDLPLTFGGGTKVEIK
Regarding B13, the optical density in test [1] was 2.86 OD; in test [2], 2.21 OD; in test [3], 3.42 OD.
